Assay [1] deals with fibrillin-1 cbEGF22-TB4 domain pair (residues 1486–1605) (human) (UniProt P35555). Nature of the assay: SPR. (In SPR one partner is held on a chip, and binding of the other changes the refractive index at the surface.)
Assay [2] concerns the target fibrillin-1 TB4-cbEGF23 domain pair (residues 1527–1647) (human) (UniProt P35555). Nature of the assay: SPR.

Substance “native αVβ3 integrin purified from human placental extract (from UniProt P05106 27-788) (receptor)” returned a fold difference in Ka against TB4-cbEGF23 in assay [1] of 2 fold. Also, the koff – broadly, the first-order rate constant of dissociation – in assay [2] worked out at 0.0016 s⁻¹.

Source of the values: paper PMC5582136.
